The record followed here is IntAct's records for PubMed 33947832.

Sequences and labels used below:
B1: ORF3a protein (SARS-CoV-2), P0DTC3 (parent)
chain: MDLFMRIFTIGTVTLKQGEIKDATPSDFVRATATIPIQASLPFGWLIVGVALLAVFQSASKIITLKKRWQLALSKGVHFVCNLLLLFVTVYSHLLLVAAGLEAPFLYLYALVYFLQSINFVRIIMRLWLCWKCRSKNPLLYDANYFLCWHTNCYDYCIPYNSVTSSIVITSGDGTTSPISEHDYQIGGYTEKWESGVKDCVVLHSYFTSDYYQLYSTQLSTDTGVEHVTFFIYNKIVDEPEEHVQIHTIDGSSGVVNPVMEPIYDEPTTTTSVPL
partner: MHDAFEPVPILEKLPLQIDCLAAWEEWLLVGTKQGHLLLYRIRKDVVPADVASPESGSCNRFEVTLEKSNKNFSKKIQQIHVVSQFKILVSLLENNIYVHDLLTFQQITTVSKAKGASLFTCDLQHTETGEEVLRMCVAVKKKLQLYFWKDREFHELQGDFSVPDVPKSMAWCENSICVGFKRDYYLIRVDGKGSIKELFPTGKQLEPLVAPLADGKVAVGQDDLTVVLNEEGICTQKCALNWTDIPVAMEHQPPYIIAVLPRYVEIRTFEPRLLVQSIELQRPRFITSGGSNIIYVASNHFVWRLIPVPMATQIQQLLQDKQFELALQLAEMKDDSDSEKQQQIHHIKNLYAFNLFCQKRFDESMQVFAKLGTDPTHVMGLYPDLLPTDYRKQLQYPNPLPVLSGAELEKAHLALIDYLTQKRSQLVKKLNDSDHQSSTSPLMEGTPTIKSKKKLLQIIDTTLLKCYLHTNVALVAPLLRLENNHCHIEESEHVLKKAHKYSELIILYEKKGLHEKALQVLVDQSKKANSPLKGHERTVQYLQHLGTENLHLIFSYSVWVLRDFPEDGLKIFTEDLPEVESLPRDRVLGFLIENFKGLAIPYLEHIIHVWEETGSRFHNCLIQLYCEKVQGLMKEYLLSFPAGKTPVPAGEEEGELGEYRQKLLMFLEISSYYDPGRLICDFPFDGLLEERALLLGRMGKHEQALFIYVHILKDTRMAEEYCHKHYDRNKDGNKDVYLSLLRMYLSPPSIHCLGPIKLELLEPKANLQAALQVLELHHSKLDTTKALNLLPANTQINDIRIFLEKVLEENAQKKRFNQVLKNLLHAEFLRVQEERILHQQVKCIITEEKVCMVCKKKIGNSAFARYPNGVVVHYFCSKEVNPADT

The assay covers variants of B1. The settings on record: with vps39_human VPS39, Q96JC1.
Consider Y160A, for which the “effect of a mutation on the interaction” value is listed as “disrupting interaction strength”.
